# Data published in publication PMC9687312.
# Key:
# [1] = target: MGL Biot-ECD (biotinylated extracellular domain of MGL) (UniProt Q8IUN9); test: SPR
# [2] = target: DC-SIGN Biot-ECD (biotinylated extracellular domain of DC-SIGN) (UniProt Q9NNX6); test: SPR
# UniProt Q9NNX6, sequence (Q9NNX6 59-404): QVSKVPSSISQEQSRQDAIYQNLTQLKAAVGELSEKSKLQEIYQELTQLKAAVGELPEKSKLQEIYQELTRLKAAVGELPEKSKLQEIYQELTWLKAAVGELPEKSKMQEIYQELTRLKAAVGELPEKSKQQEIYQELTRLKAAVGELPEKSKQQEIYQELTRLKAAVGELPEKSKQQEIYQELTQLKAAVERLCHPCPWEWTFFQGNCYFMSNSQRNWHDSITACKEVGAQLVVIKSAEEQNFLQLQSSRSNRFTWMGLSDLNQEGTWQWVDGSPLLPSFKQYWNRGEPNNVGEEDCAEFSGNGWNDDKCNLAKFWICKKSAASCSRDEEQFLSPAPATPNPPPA
# UniProt Q8IUN9, sequence (Q8IUN9 61-316): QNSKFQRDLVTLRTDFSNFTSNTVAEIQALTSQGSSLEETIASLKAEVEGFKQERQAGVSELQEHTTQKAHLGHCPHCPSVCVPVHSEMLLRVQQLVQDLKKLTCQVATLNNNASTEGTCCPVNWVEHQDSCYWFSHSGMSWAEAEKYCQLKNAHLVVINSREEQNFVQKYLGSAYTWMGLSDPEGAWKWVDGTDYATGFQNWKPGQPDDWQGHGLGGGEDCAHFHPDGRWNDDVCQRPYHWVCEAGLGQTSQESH
substance,measurement,setting,value
ADD KGE RBD (ADD-KGE/RBD-SC covalent complex) (from UniProt Q2Y0H9 1-544; P0DTC2 320-554),Kd,[1],66.1 nM
same,Kd,[2],0.34 nM
